# Positions count from the first letter of the chain named.
# T1: Cynomolgus monkey DLL3 on HEK293 cells (HEK293-cyno DLL3) (Cynomolgus monkey, UniProt Q9NYJ7 27-618 (human entry))
# T1 chain: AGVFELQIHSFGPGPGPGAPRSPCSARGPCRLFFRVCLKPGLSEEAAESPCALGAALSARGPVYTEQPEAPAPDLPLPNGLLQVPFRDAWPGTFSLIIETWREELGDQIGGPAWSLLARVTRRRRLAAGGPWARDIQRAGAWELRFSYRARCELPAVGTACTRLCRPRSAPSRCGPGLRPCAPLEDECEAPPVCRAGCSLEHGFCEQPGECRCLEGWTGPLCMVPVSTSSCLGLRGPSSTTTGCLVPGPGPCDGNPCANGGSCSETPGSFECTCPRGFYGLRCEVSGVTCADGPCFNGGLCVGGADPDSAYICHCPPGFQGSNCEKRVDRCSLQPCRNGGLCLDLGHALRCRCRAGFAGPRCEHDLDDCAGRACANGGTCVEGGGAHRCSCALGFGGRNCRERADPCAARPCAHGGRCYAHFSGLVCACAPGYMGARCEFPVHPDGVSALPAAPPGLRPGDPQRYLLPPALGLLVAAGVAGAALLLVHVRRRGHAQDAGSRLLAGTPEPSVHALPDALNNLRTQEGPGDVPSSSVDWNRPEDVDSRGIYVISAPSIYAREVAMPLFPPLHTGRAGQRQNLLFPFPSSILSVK
# B1: DLL3-26 camelid-derived anti-DLL3 chimeric antibody (antibody, human IgG1, V domains shown)
# VH: QVQLVESGGGSVQAGGSLRLSCAASGDIYSSSYVGWFRQAPGKEREGVAIIYTSGDSTYYANSVKGRFTISQDKAKKTLYLQMNSLKPEDTAMYYCAARFAIDNSNYWGQGTQVTVSS
# B2: hDLL3-26 camelid-derived humanized anti-DLL3 antibody (antibody, V domains shown)
# VH: EVQLVESGGGLVQPGGSLRLSCAASGDIYSSSYVGWFRQAPGKEREGVAIIYTSGDSTYYADSVKGRFTISRDNSKNTLYLQMNSLRAEDTAVYYCAARFAIDNSNYWGQGTLVTVSS
# B3: hDLL3-3-1 camelid-derived humanized anti-DLL3 antibody (antibody, human IgG1, V domains shown)
# VH: EVQLVESGGGLVQPGGSLRLSCAASTYTISSGYMGWFRQAPGKEREGVAAIYIGGSTTLYADSVKGRFTISRDNSKNTLYLQMNSLRAEDTAVYYCAAQLRPNSAYHPLDGRKYNYWGQGTLVTVSS
# B4: hDLL3-3-2 camelid-derived humanized anti-DLL3 antibody (antibody, V domains shown)
# VH: B3 VH with A23K, A24S, S25P
# B5: DLL3-122 camelid-derived anti-DLL3 chimeric antibody (antibody, human IgG1, V domains shown)
# VH: QVQLVESGGGSVQAGGSLRLSCTASGDTYRSYCMGWFRKAPGKEREGVADIVSDGSTSYADSVKGRFTISKDNAKNTLYLQMNSLKPEDTAMYYCAVDRGGSGGYCYTGRYDYWGQGTQVTVSS
# B6: hDLL3-122 camelid-derived humanized anti-DLL3 antibody (antibody, V domains shown)
# VH: EVQLVESGGGLVQPGGSLRLSCAASGDTYRSYCMGWFRQAPGKEREGVADIVSDGSTSYADSVKGRFTISRDNSKNTLYLQMNSLRAEDTAVYYCAVDRGGSGGYCYTGRYDYWGQGTLVTVSS
# B7: DLL3-3 camelid-derived anti-DLL3 chimeric antibody (antibody, human IgG1, V domains shown)
# VH: DVQLVESGGGSVQAGGSLKLSCKSPTYTISSGYMGWFRQAPGKEREGVAAIYIGGSTTLYADSVKGRFTISADNAEKTVYLQMNTLKPEDSAMYYCAAQLRPNSAYHPLDGRKYNYWGQGTQVTVSS
# Target: T1, Cynomolgus monkey DLL3 on HEK293 cells …
# Assay: flow cytometry, HEK293-cyno DLL3 cells
# Procedure: SHP-77 and HEK293-cyno DLL3 cells were cultured. The culture medium for SHP-77 cells were RPMI1640+10% FBS, and the culture medium for HEK293 cyno DLL3 cells were DMEM+10% FBS+200 μg/ml Hygromycin. The cells were cultured in a T75 cell culture flask at a 37° C. 5% CO₂ incubator. When using cells, they are washed with sterile DPBS, digested with 0.25% trypsin EDTA for about 5 minutes, and then stopped with a complete medium.
# The digested cells were centrifuged at 1000 rpm for 5 min at room temperature. The supernatant was discarded and the cells were resuspended in 100 μL of 1% BSA (in PBS). The cells were counted and adjusted to a cell density of 1E6/m. The dilute cells were seeded in a 96-well round-bottom culture plate (corning 3799), and centrifuged at 1500 rpm for 5 min at 4° C. The supernatant was discarded and the cells were stored at 4° C. until use. Antibody samples to be tested were diluted with 1% BSA (in PBS) at a starting concentration of 100 nM, downwards by a 10-fold gradient for 7 concentrations. The cells were resuspended with the diluted antibody at 100 μL/well and incubated for 1 hour at 4° C. The cells were centrifuged at 1500 rpm for 5 minutes at 4° C. and the supernatant was discarded. The cells were resuspended and washed with 160 μL of 1% BSA (in PBS), centrifuged at 1500 rpm for 5 minutes at 4° C. The supernatant was discarded. The secondary antibody (goat anti human IgG Fc PE) was diluted 1:200 with 1% BSA (in PBS) according to the manufacturer's instructions and the cells were resuspended with the diluted secondary antibody, 100 μL/well, and incubated for 0.5 h at 4° C. The cells were centrifuged at 1500 rpm for 5 minutes at 4° C. and the supernatant was discarded. The cells were resuspended and washed with 160 μL of 1% BSA (in PBS), centrifuged at 1500 rpm for 5 minutes at 4° C. The supernatant was discarded. The cells were resuspended in 100 μL of 1% BSA (in PBS), and filtered across a 300 mesh gauze. The mean fluorescence intensity of the PE channels was measured by flow cytometry.
# The analyzed mean fluorescence intensity was imported into Graphpad to analyze the median-binding concentration (hereinafter referred to as EC50) of antibody and cell and the top mean fluorescence intensity (Top MFI).
Binder,EC50,Top MFI
B1,0.54 nM,336 MFI
B2,2.24 nM,301 MFI
B3,0.22 nM,346 MFI
B4,0.15 nM,344 MFI
B5,0.58 nM,351 MFI
B6,0.99 nM,351 MFI
B7,0.08 nM,379 MFI

# Source: patent US20240239878A1 (SHANGHAI QILU PHARMACEUTICAL RESEARCH AND DEVELOPMENT CENTRE, published 2024)
